According to PMC2600739 (The Journal of Cell Biology, 2008):

Biological target: the molecule itself
Assay: cross-linking

B1: JAM-L–HA (p513-JAM-L-HA vector), wild type (natural protein, human, UniProt Q86YT9 20-394, looked up)
chain: LNDLNVSPPELTVHVGDSALMGCVFQSTEDKCIFKIDWTLSPGEHAKDEYVLYYYSNLSVPIGRFQNRVHLMGDILCNDGSLLLQDVQEADQGTYICEIRLKGESQVFKKAVVLHVLPEEPKELMVHVGGLIQMGCVFQSTEVKHVTKVEWIFSGRRAKEEIVFRYYHKLRMSVEYSQSWGHFQNRVNLVGDIFRNDGSIMLQGVRESDGGNYTCSIHLGNLVFKKTIVLHVSPEEPRTLVTPAALRPLVLGGNQLVIIVGIVCATILLLPVLILIVKKTCGNKSSVNSTVLVKNTKKTNPEIKEKPCHFERCEGEKHIYSPIIVREVIEEEEPSEKSEATYMTMHPVWPSLRSDRNNSLEKKSGGGMPKTQQAF
stoichiometry N: 2
